Laboratory results from paper PMC8307404, “Crystal Structure-Guided Design of Bisubstrate Inhibitors and Photoluminescent Probes for Protein Kinases of the PIM Family” (Molecules, 2021).
Square brackets hold non-standard residues; d marks the D form. Peptide text beside a SMILES is read from it. * marks the point of attachment. X3 = O=C(CCCCCNCc1nc2c(sc3cc(Br)cnc32)c(=O)[nH]1)*

Legend:
Test in all cases: Kinase profiling (radiometric filter-binding)
Assay type in all cases: biochemical
ULK1 = molecular target: T1, ULK1 (Homo sapiens, UniProt O75385); conditions: ULK1, 1 µM inhibitor; read-out: Residual activity, %
T1 sequence (O75385 1-1050): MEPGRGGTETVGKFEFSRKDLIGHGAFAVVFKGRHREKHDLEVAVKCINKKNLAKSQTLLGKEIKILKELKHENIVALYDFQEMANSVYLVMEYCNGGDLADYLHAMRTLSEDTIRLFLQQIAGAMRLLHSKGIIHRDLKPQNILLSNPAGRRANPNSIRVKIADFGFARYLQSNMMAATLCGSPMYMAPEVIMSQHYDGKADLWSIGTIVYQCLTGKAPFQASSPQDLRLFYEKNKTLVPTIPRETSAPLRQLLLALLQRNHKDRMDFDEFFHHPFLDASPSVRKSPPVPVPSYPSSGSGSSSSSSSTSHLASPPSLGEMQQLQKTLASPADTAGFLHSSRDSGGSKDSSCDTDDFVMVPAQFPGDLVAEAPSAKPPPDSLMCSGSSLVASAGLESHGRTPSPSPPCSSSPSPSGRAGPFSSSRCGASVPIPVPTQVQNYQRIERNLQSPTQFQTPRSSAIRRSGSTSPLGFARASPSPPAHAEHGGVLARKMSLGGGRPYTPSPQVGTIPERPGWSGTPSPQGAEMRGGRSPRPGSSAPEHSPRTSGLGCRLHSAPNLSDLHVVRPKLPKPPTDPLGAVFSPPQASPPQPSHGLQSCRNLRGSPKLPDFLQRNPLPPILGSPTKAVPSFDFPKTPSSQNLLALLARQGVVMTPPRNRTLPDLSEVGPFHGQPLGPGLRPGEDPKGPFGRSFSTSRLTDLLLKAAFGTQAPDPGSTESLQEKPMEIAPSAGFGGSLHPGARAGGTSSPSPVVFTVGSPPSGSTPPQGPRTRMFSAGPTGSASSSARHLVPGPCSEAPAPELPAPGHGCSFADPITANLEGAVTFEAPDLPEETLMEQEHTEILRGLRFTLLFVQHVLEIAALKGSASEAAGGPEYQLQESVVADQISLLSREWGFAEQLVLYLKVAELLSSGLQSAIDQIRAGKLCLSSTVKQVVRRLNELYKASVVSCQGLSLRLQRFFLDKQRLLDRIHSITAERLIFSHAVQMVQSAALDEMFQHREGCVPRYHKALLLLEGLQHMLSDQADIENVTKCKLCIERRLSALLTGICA
Method in brief: (§1)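 Single-point selectivity screen at 1 µM total inhibitor concentration across a panel of 139 or 140 human PKs, using radioactive filter-binding detection with ATP near or below KM; data are % activity remaining versus untreated control.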

MKK1 = MKK1 (Homo sapiens, UniProt Q02750); conditions: MKK1, 1 µM inhibitor; read-out: Residual activity, %
MKK1, sequence (Q02750 whole entry): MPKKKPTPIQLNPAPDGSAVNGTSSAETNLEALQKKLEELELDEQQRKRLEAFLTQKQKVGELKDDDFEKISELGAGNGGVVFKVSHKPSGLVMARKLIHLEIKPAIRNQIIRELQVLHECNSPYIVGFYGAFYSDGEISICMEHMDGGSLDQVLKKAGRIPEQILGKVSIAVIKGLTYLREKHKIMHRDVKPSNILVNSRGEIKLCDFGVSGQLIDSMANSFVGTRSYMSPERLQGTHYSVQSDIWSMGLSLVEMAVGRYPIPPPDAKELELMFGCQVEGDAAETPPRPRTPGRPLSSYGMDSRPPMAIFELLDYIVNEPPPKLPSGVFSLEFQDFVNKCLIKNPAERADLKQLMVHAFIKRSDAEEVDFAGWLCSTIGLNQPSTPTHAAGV
Method in brief: as §1

MSK1 = MSK1 (Homo sapiens, UniProt O75582); conditions: MSK1, 1 µM inhibitor; read-out: Residual activity, %
MSK1, sequence (O75582 whole entry): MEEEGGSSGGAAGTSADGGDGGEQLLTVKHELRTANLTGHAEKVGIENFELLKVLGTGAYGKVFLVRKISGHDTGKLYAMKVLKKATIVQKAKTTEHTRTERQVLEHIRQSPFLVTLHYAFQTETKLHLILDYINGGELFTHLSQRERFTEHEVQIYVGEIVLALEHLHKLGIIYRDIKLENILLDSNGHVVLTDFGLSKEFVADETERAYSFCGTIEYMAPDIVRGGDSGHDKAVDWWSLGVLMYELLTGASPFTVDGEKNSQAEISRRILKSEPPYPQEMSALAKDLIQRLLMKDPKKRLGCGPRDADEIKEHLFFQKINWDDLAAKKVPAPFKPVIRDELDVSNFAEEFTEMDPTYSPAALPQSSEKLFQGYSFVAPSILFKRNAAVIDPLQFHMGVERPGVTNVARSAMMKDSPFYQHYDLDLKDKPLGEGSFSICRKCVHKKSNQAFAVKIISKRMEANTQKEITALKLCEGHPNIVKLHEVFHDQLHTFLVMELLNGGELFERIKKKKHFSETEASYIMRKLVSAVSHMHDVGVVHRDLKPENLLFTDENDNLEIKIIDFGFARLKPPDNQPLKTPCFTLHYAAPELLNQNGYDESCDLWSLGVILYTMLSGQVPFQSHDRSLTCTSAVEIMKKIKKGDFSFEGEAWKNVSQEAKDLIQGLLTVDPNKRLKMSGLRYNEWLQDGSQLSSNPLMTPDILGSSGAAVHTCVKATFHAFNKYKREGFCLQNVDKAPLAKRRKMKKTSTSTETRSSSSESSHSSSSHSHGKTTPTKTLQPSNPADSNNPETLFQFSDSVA
Method in brief: as §1

HER4 = HER4 (Homo sapiens, UniProt Q15303); conditions: HER4, 1 µM inhibitor; read-out: Residual activity, %
HER4, sequence (Q15303 26-1308): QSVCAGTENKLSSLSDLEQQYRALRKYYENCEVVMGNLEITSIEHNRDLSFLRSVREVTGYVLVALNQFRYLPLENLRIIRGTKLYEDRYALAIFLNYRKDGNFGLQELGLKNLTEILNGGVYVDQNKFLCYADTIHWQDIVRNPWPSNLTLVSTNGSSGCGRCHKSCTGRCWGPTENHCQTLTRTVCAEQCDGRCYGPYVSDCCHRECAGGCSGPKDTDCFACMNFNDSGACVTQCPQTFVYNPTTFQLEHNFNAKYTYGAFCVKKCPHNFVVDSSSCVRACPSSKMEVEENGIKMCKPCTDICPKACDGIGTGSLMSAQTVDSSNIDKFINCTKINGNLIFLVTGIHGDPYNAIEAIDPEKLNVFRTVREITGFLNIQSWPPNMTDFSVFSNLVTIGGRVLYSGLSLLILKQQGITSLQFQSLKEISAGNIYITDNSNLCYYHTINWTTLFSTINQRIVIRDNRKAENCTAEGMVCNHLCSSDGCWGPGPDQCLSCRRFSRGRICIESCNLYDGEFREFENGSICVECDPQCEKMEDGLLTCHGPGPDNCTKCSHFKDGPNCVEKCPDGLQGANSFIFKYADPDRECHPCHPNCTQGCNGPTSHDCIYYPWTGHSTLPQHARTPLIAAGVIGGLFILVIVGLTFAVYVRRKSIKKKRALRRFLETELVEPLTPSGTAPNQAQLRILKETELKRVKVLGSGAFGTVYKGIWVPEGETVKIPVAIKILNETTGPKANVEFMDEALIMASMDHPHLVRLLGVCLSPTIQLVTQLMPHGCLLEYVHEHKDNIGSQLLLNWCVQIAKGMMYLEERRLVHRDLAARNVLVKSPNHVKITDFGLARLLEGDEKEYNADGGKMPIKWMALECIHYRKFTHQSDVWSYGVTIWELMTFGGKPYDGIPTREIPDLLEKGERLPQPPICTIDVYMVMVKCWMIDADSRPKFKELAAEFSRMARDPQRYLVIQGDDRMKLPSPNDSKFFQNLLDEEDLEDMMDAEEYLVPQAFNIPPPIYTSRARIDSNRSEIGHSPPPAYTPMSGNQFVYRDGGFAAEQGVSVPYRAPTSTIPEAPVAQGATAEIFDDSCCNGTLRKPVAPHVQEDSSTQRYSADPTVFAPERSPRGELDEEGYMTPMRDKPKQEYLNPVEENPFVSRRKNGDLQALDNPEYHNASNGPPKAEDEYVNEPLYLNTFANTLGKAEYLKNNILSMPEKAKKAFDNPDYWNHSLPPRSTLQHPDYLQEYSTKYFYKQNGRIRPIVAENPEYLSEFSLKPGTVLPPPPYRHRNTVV
Method in brief: as §1

MNK2 = MNK2 (Homo sapiens, UniProt Q9HBH9); conditions: MNK2, 1 µM inhibitor; read-out: Residual activity, %
MNK2, sequence (Q9HBH9 whole entry): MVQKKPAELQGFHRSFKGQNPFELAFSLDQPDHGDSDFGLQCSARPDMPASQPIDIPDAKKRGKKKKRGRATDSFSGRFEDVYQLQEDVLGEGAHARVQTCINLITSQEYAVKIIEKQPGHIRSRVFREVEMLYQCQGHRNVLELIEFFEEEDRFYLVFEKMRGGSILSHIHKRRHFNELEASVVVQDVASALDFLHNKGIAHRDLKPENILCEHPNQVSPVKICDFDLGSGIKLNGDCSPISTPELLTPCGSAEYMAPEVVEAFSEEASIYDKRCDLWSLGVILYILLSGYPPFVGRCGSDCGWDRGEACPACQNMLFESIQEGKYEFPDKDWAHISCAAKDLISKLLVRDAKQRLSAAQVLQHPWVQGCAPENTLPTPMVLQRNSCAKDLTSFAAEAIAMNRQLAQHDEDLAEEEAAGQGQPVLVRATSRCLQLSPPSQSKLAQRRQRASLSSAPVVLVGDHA
Method in brief: as §1

PKC = PKC (Homo sapiens, UniProt P17252); conditions: first of two PKC lines (Greek letter lost), 1 µM inhibitor, read-out: Residual activity, %
Method in brief: as §1

IRR = IRR (Homo sapiens, UniProt P14616); conditions: 1 µM inhibitor, read-out: Residual activity, %
IRR, sequence (P14616 27-1297): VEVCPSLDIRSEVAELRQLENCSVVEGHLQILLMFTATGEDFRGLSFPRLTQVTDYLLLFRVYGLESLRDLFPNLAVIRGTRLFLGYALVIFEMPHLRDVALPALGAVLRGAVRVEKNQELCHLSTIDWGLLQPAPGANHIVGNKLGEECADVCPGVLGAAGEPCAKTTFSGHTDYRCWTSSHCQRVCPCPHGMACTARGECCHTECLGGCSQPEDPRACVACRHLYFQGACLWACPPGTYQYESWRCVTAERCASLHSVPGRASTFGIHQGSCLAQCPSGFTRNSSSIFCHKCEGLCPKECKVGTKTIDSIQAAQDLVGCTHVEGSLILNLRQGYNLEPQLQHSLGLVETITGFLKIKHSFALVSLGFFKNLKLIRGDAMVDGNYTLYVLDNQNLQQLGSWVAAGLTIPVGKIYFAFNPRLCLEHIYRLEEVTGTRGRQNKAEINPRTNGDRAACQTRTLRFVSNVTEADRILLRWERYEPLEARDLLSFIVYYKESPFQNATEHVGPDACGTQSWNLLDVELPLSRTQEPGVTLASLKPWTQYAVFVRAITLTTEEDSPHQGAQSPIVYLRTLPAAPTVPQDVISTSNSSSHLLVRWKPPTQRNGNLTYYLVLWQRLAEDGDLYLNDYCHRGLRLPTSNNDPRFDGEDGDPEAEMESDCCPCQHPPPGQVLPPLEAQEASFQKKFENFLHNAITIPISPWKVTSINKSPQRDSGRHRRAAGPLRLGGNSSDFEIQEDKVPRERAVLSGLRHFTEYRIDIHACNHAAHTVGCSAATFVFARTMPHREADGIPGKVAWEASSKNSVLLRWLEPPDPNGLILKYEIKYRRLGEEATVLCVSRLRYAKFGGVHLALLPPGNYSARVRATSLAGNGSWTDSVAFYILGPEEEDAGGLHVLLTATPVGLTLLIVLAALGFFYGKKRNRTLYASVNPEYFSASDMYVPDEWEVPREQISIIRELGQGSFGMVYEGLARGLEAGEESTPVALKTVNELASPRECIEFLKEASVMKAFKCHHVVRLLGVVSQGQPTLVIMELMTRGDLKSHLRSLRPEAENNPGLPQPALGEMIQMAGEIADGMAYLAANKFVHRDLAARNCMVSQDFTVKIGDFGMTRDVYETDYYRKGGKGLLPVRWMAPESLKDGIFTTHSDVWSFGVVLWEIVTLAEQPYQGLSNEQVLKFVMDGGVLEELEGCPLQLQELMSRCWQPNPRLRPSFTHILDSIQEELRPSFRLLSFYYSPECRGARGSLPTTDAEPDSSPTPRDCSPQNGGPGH
Method in brief: as §1

N=C(N)NCCC[C@@H](NC(=O)CCCCCNC(=O)Cn1cnc2c(I)c(I)c(I)c(I)c21)C(=O)N[C@H](CCCNC(=N)N)C(=O)N[C@H](CCCNC(=N)N)C(=O)N[C@H](CCCNC(=N)N)C(=O)N[C@H](CCCNC(=N)N)C(=O)N[C@H](CCCNC(=N)N)C(=O)N[C@H](CCCCN)C(N)=O [ARC-3125, TIBI-CH2-C(=O)-Ahx-(D-Arg)6-D-Lys-NH2]
remaining activity at 1 µM (ULK1): 89 ± 9%
remaining activity at 1 µM (MKK1): 32 ± 27%
remaining activity at 1 µM (MSK1): 6 ± 8%
remaining activity at 1 µM (HER4): 120 ± 9%
remaining activity at 1 µM (MNK2): 19 ± 4%
remaining activity at 1 µM (PKC): 81 ± 9%
remaining activity at 1 µM (IRR): 20 ± 34%

N=C(N)NCCC[C@@H](NC(=O)CNC(=O)[C@@H](CCCNC(=N)N)NC(=O)[C@@H](CCCNC(=N)N)NC(=O)CCCCCCCNCc1nc2c(sc3cc(Br)cnc32)c(=O)[nH]1)C(=O)N[C@H](CCCCN)C(N)=O [Compound 1, BPTP-Aoc-(D-Arg)2-Gly-D-Arg-D-Lys-NH2]
remaining activity at 1 µM (ULK1): 107 ± 5%
remaining activity at 1 µM (MKK1): 93 ± 4%
remaining activity at 1 µM (MSK1): 106 ± 13%
remaining activity at 1 µM (HER4): 111 ± 13%
remaining activity at 1 µM (MNK2): 80 ± 3%
remaining activity at 1 µM (PKC): 112 ± 2%
remaining activity at 1 µM (IRR): 99 ± 2%

N=C(N)NCCC[C@@H](NC(=O)CCCCCNCc1nc2c(sc3cc(Br)cnc32)c(=O)[nH]1)C(=O)N[C@H](CCCNC(=N)N)C(=O)N[C@H](CCCNC(=N)N)C(=O)N[C@H](CCCNC(=N)N)C(=O)N[C@H](CCCNC(=N)N)C(=O)N[C@H](CCCNC(=N)N)C(=O)N[C@H](CCCCN)C(N)=O [ARC-3126, BPTP-Ahx-(D-Arg)6-D-Lys-NH2] (X3-[dR][dR][dR][dR][dR][dR][dK]-NH2)
remaining activity at 1 µM (ULK1): 119 ± 6%
remaining activity at 1 µM (MKK1): 100 ± 6%
remaining activity at 1 µM (MSK1): 29 ± 1%
remaining activity at 1 µM (HER4): 110 ± 5%
remaining activity at 1 µM (MNK2): 84 ± 17%
remaining activity at 1 µM (PKC): 115 ± 17%
remaining activity at 1 µM (IRR): 75 ± 4%

N=C(N)NCCC[C@@H](NC(=O)CNC(=O)[C@@H](CCCNC(=N)N)NC(=O)[C@@H](CCCNC(=N)N)NC(=O)Cn1cc(CNCc2nc3c(sc4ccc(Br)cc43)c(=O)[nH]2)nn1)C(=O)N[C@H](CCCCN)C(N)=O [Compound 3, BBTP-Amt-(D-Arg)2-Gly-D-Arg-D-Lys-NH2]
remaining activity at 1 µM (ULK1): 108 ± 11%
remaining activity at 1 µM (MKK1): 92 ± 6%
remaining activity at 1 µM (MSK1): 90 ± 2%
remaining activity at 1 µM (HER4): 105 ± 8%
remaining activity at 1 µM (MNK2): 96 ± 10%
remaining activity at 1 µM (PKC): 110 ± 5%
remaining activity at 1 µM (IRR): 110 ± 1%

N=C(N)NCCC[C@@H](NC(=O)CNC(=O)[C@@H](CCCNC(=N)N)NC(=O)[C@@H](CCCNC(=N)N)NC(=O)CCCCCCCNCc1nc2c(sc3ccc(Br)cc32)c(=O)[nH]1)C(=O)N[C@H](CCCCN)C(N)=O [Compound 2, BBTP-Aoc-(D-Arg)2-Gly-D-Arg-D-Lys-NH2]
remaining activity at 1 µM (ULK1): 99 ± 6%
remaining activity at 1 µM (MKK1): 94 ± 1%
remaining activity at 1 µM (MSK1): 53 ± 4%
remaining activity at 1 µM (HER4): 114 ± 15%
remaining activity at 1 µM (MNK2): 47 ± 2%
remaining activity at 1 µM (PKC): 102 ± 4%
remaining activity at 1 µM (IRR): 99 ± 5%
